From patent publication US8524227B2, “Anti-IL-TIF antibodies” (ZymoGenetics, Inc., priority 2002, dated 2013)

Assays:
[1] = biological target: T1, CRF2-4/zcytor11 heterodimeric receptor (Homo sapiens, UniProt Q08334+Q8N6P7, R518G); assay: Alamar Blue proliferation assay, BaF3/CRF2-4/zcytor11 cells; type: cell-based; details: 50 ng/ml IL-TIF-CEE
T1 construct: BaF3 cells expressing the full-length CFR2-4 receptor were constructed; expressed in transfected cells
T1 sequence (Q8N6P7 16-574 R518G): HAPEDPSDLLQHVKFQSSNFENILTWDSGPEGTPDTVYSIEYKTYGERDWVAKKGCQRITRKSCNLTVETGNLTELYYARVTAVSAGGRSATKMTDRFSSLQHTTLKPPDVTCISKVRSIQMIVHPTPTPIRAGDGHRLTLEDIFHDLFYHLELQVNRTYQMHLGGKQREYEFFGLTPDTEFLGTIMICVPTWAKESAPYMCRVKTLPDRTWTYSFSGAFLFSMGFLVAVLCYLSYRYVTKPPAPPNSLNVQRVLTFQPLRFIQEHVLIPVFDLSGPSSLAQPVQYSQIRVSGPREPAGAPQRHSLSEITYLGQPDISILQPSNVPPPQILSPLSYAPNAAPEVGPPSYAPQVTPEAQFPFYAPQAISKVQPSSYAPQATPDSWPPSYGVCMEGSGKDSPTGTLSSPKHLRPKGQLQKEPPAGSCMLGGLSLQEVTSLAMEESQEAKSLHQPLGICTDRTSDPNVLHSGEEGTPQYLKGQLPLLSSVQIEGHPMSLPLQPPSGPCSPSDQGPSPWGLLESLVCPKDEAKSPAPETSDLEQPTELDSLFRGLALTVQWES
T1 sequence (Q08334 20-325): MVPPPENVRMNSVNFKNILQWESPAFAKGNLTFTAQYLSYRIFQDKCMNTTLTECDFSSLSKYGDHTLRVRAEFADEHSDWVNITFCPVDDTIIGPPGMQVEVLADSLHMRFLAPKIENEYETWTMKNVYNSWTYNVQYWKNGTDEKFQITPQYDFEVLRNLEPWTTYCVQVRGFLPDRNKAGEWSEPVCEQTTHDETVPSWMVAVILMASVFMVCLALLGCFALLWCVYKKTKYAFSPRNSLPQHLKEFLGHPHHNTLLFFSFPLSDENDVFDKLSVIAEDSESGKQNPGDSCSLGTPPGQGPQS
Method: BaF3/CRF2-4/zcytor11 cells were spun down and washed in the complete media, described in Example 21A above, but without mIL-3 (hereinafter referred to as “mIL-3 free media”). The cells were spun and washed 3 times to ensure the removal of the mIL-3 Cells were then counted in a hemacytometer. Cells were plated in a 96-well format at 5000 cells per well in a volume of 100 μl per well using the mIL-3 free media.
Proliferation of the BaF3/CRF2-4/zcytor11 cells was assessed using IL-TIF-CEE protein diluted with mIL-3 free media to 50, 10, 2, 1, 0.5, 0.25, 0.13, 0.06 ng/ml concentrations. 100 μl of the diluted protein was added to the BaF3/CRF2-4/zcytor11 cells. The total assay volume is 200 μl. […] Alamar Blue gives a fluourometric readout based on number of live cells, and is thus a direct measurement of cell proliferation in comparison to a negative control. […] Plates were read on the Finax™ plate reader (Molecular Devices Sunnyvale, Calif.) using the SoftMax™ Pro program, at wavelengths 544 (Excitation) and 590 (Emmission). […] The response, as measured, was approximately 15-fold over background at the high end of 50 ng/ml down to a 2-fold induction at the low end of 0.06 ng/ml. […]
IL-TIF protein (SEQ ID NO:3) was diluted to 200 pg/ml in mIL-3 free media. […] Plates were read on the Wallac Victor 2 1420 Multilabel Counter (Wallac, Turku, Finland) at wavelengths 530 (Excitation) and 590 (Emmssion). […]

BaF3 wild type cells = assay: Alamar Blue proliferation assay, BaF3 wild type cells; type: cell-based, murine
BaF3/CRF2-4 cells = assay: Alamar Blue proliferation assay, BaF3/CRF2-4 cells; type: cell-based, murine

B1: IL-TIF-CEE: IL-TIF polypeptide containing C-terminal GluGlu (EE) tag, purified from BHK 570 cells (protein)
chain: APISSHCRLDKSNFQQPYITNRTFMLAKEASLADNNTDVRLIGEKLFHGVSMSERCYLMKQVLNFTLEEVLFPQSDRFQPYMQEVVPFLARLSNRLSTCHIEGDDLHIQRNVQKLKDTVKKLGESGEIKAIGELDLLFMSLRNACIEYMPME
[1]
  proliferative response over background: approximately 15 fold
BaF3 wild type cells
  proliferation in response to IL-TIF-CEE: did not proliferate
BaF3/CRF2-4 cells
  proliferation in response to IL-TIF-CEE: did not proliferate
